Earlier results on one sequence are cited in article PMC5057102.

The term Kd denotes the constant that tells how readily two partners part at equilibrium.

The data set deals with Amyloid beta oligomers (1-40/1-42, form not specified) (UniProt P05067). As to the kind of experiment: not stated (cited). Particulars: 5'-HS (thiol); 0.1 M phosphate buffer (Na2HPO4/NaH2PO4) pH 7.4; incubations at 37 C (Abeta 60 min, aptamer-Au-Th 3 h); 1% BSA block.
Sequence of Amyloid beta oligomers (1-40/1-42, form not specified) (P05067 672-711): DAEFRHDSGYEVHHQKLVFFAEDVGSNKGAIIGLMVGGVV

With “GCCTGTGTTGGGGCGGGTGCG [Abeta oligomer aptamer (thiolated, on AuNP with thionine)]”, the dissociation constant Kd is 25 nM.
